{"source": "patent US20260125472A1", "about": "(HEFEI TG IMMUNOPHARMA, published 2026)", "binders": {"B1": {"name": "Cross311×Trop2 (bispecific antibody)", "scFv": "not shown", "heavy": "QVQLQQSGSELKKPGASVKVSCKASGYTFTNYGMNWVKQAPGQGLKWMGWINTYTGEPTYTDDFKGRFAFSLDTSVSTAYLQISSLKADDTAVYFCARGGFGSSYWYFDVWGQGSLVTVSSASTKGPSVFPLAPSSKSTSGGTAALGCLVKDYFPEPVTVSWNSGALTSGVHTFPAVLQSSGLYSLSSVVTVPSSSLGTQTYICNVNHKPSNTKVDKKVEPKSSDKTHTCPPCPAPEAAGGPSVFLFPPKPKDTLMISRTPEVTCVVVDVSHEDPEVKFNWYVDGVEVHNAKTKPREEQYNSTYRVVSVLTVLHQDWLNGKEYKCKVSNKALPAPIEKTISKAKGQPREPQVCTLPPSREEMTKNQVSLSCAVKGFYPSDIAVEWESNGQPENNYKTTPPVLDSDGSFFLVSKLTVDKSRWQQGNVFSCSVMHEALHNHYTQKSLSLSPGK", "light": "DIQLTQSPSSLSASVGDRVSITCKASQDVSIAVAWYQQKPGKAPKLLIYSASYRYTGVPDRFSGSGSGTDFTLTISSLQPEDFAVYYCQQHYITPLTFGAGTKVEIKRTVAAPSVFIFPPSDEQLKSGTASVVCLLNNFYPREAKVQWKVDNALQSGNSQESVTEQDSKDSTYSLSSTLTLSKADYEKHKVYACEVTHQGLSSPVTKSFNRGEC"}}, "key": {"CD3E&D protein": {"molecular_target": "T1, CD3E&D protein (UniProt P04234 22-105)", "T1 construct": "Purchased from Acro; also called CD3 E&D antigens; CD3E&D antigen protein", "T1 sequence (chain, as listed by the source limits assumed, chain 1 of 2)": "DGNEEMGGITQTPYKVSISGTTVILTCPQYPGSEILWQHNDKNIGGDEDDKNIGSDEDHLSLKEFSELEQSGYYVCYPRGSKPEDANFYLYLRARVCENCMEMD", "T1 sequence (P04234 22-105 limits assumed, chain 2 of 2)": "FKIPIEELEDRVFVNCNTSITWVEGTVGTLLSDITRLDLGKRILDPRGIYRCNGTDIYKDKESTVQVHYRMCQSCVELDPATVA", "assay": "ELISA, coated CD3E&D protein, OD450", "from_the_text": "In this example, the binding properties of the CD3×Trop2 and CD3×PDL1 bispecific antibody (the production method and the amino acid sequences of the heavy and light chains were shown in Example 1) were detected by using ELISA. The CD3E&D, Trop2, or PDL1 protein was coated onto 96-well plates by inventors, and the strength of the signal after the addition of the antibody was used to determine the binding properties of the antibody and the corresponding protein.\n(1) CD3E&D protein (purchased from Acro) was diluted to 2 μg/ml with PBS buffer, added to a 96-well plate at a volume of 100 μL/well, and placed at 4° C. overnight. The PBS buffer in the 96-well plate was aspirated, and the plate was washed 6 times with PBST (pH 7.2 PBS containing 0.1% Tween 20) buffer. Then, 200 μL/well PBS/10% BSA was added and incubated at 37° C. for 2 h for blocking. The blocking solution was removed, and the plate was washed 6 times with PBST. […] The absorbance was read at 450 nm using a microplate reader."}, "[1]": {"molecular_target": "T2, Trop2 on A-375-Trop2 melanoma cells (UniProt P09758 27-323, limits assumed)", "T2 construct": "whole, on cells", "T2 sequence (looked up)": "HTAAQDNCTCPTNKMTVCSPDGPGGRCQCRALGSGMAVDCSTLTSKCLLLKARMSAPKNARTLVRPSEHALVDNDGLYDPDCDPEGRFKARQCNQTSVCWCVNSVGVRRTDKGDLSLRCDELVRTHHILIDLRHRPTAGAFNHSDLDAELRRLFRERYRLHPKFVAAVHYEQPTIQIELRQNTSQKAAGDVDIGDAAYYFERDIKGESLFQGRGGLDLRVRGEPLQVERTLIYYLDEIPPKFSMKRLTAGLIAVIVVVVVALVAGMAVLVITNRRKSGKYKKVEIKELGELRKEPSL", "assay": "flow cytometry, A-375-Trop2 cells, MFI [panel B]", "experimental": "(2) The tumor cells were diluted to 2×10⁶/ml with PBS and added to a 1.5 ml EP tube at a volume of 100 μl/tube, and goat serum was added thereto at 10 μl/tube. The cells were blocked at 4° C. for 30 min. The serially diluted bispecific antibodies, Cross3×Trop2, Cross303×Trop2, Cross307×Trop2, Cross308×Trop2, Cross309×Trop2, Cross310×Trop2, Cross311×Trop2, Cross312×Trop2, Cross313×Trop2, Cross314×Trop2, Cross316×Trop2, Cross317×Trop2, Cross318×Trop2, Cross323×Trop2, Cross325×Trop2, Cross326×Trop2, and Cross3×PDL1, Cross303×PDL1, Cross307×PDL1, Cross308×PDL1, Cross309×PDL1, Cross310×PDL1, Cross311×PDL1, Cross312×PDL1, Cross313×PDL1, Cross314×PDL1, Cross316×PDL1, Cross317×PDL1, Cross318×PDL1, Cross323×PDL1, Cross325×PDL1, Cross326×PDL1, and control hIgG1LALA (purchased from Bio-Tech) were added and incubated at 4° C. for 30 min. 1 ml of PBS was added to the EP tube, followed by centrifugation at 3500 rpm for 5 min at 4° C. The supernatant was discarded, and the cells were washed again with PBS. After centrifugation, the supernatant was completely discarded, and the cells were resuspended with PBS at 100 μl/tube. Alexa-647-labeled goat anti-human IgG secondary antibody (purchased from Jackson lab) was added at 1 μl/tube and incubated at 4° C. in the dark for 30 min. The cells were washed twice with PBS, and the supernatant was completely discarded after centrifugation. The cells were resuspended with PBS at 200 μl/tube and assay was performed using the flow cytometry."}, "CD3 on CD8 T cells": {"molecular_target": "T3, CD3 on CD8 T cells (Homo sapiens (Human), UniProt P07766 23-207)", "T3 construct": "Native CD3 complex on CD8 T cells among PBMCs; also called T cells (PBMCs gated with anti-human CD8 antibody)", "T3 sequence (P07766 23-207 limits assumed)": "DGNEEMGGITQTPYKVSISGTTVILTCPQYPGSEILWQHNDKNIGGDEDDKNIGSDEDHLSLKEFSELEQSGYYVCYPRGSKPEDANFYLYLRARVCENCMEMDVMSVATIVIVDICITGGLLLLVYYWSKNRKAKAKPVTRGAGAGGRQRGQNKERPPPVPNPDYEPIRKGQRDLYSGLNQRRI", "assay": "flow cytometry, CD8 T cells in PBMCs, MFI [panel B]", "experimental": "(1) PBMCs were diluted to 2×10⁶/ml with PBS and added to a 1.5 ml EP tube at 100 μl/tube, goat serum was added thereto at 10 μl/tube. The cells were blocked at 4° C. for 30 min. The serially diluted bispecific antibodies, Cross3×Trop2, Cross303×Trop2, Cross307×Trop2, Cross308×Trop2, Cross309×Trop2, Cross310×Trop2, Cross311×Trop2, Cross312×Trop2, Cross313×Trop2, Cross314×Trop2, Cross316×Trop2, Cross317×Trop2, Cross318×Trop2, Cross323×Trop2, Cross325×Trop2, Cross326×Trop2, Cross3×PDL1, Cross313×PDL1, Cross316×PDL1, Cross325×PDL1, and control hIgG1LALA (purchased from Bio-Tech) were added and incubated at 4° C. for 30 min. 1 ml of PBS was added to the EP tube, followed by centrifugation at 3500 rpm for 5 min at 4° C. The supernatant was discarded, and the system was washed again with PBS. After centrifugation, the supernatant was discarded, and the cells were resuspended with PBS at 100 μl/tube. 1 μl/tube Alexa-647-labeled goat anti-human IgG secondary antibody (purchased from Jackson lab) and 0.5 μl/tube PerCP-Cy5.5-labeled anti-human CD8 antibody were added and incubated at 4° C. in the dark for 30 min. The cells were washed twice with PBS. After centrifugation, the supernatant was discarded. The cells were resuspended with 200 μl/tube of PBS and assay is performed by flow cytometry."}}}
{"binder": "B1", "values": [{"measurement": "EC50 (read off the curve)", "setting": "CD3E&D protein", "result": "~0.04", "unit": "µg/mL"}, {"measurement": "EC50 (read off the curve)", "setting": "[1]", "result": "~1", "unit": "µg/mL"}, {"measurement": "EC50 (read off the curve)", "setting": "CD3 on CD8 T cells", "result": "~4", "unit": "µg/mL"}]}
